Numbering of substitutions follows the chain as printed.
Biological target: T1, human GM-CSFRα, full length on cells (human, UniProt P15509 23-400)
T1 sequence: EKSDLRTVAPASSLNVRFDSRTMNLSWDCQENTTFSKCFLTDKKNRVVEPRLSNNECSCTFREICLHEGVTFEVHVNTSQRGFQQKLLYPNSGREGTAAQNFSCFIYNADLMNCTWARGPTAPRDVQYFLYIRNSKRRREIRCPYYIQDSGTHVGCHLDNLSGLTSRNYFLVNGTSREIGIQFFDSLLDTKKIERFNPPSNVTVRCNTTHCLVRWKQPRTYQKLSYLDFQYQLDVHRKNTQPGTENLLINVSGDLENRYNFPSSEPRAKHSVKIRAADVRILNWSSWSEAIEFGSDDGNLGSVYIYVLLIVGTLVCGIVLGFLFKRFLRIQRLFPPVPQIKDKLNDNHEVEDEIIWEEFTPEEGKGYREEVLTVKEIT
Assay: cell-based or functional assay

B1: E35-scFv LD92M (scFv, V domains shown)
VH: QMQLVQSGAEVKKPGASVKVSCKVSGYTLTELSIHWVRQAPGKGLEWMGGFDPEDGETIYAQKFQGRVTMTGDTSTDTAYLELSSLRSEDTALYYCATGRYTSLATTYGFDYWGQGTLVTVSS
VL: EIVMTQSPATLSLSPGERATLSCRASQSVSSYLAWYQQKPGQAPRLLIYGASSRATGIPDRFSGSGSGTDFTLTISRLEPEDFAVYYCQQYMNWPYTFGQGTKLEIK
IC50, TF-1 cell proliferation: 0.507 µg/mL

B2: E35-scFv HT30D (scFv, V domains shown)
VH: B1 VH with T30D
VL: B1 VL with M92D
IC50, TF-1 cell proliferation: 0.132 µg/mL

B3: E35-scFv HE31K (scFv, V domains shown)
VH: B1 VH with E31K
VL: B1 VL with M92D
IC50, TF-1 cell proliferation: 0.23 µg/mL

B4: E35-scFv LN93T (scFv, V domains shown)
VH: B1 VH
VL: B1 VL with M92D, N93T
IC50, TF-1 cell proliferation: 0.14 µg/mL

B5: E35-scFv LN93Y (scFv, V domains shown)
VH: B1 VH
VL: B1 VL with M92D, N93Y
IC50, TF-1 cell proliferation: 0.156 µg/mL

B6: E35-scFv HE31V (scFv, V domains shown)
VH: B1 VH with E31V
VL: B1 VL with M92D
IC50, TF-1 cell proliferation: 0.22 µg/mL

B7: E35-scFv LD92P (scFv, V domains shown)
VH: B1 VH
VL: B1 VL with M92P
IC50, TF-1 cell proliferation: 0.881 µg/mL

B8: E35-scFv LD92H (scFv, V domains shown)
VH: B1 VH
VL: B1 VL with M92H
IC50, TF-1 cell proliferation: 0.53 µg/mL

B9: E35-scFv LD92K (scFv, V domains shown)
VH: B1 VH
VL: B1 VL with M92K
IC50, TF-1 cell proliferation: 0.64 µg/mL

B10: E35-scFv HE31G (scFv, V domains shown)
VH: B1 VH with E31G
VL: B1 VL with M92D
IC50, TF-1 cell proliferation: 0.116 µg/mL

B11: E35-scFv LN93I (scFv, V domains shown)
VH: B1 VH
VL: B1 VL with M92D, N93I
IC50, TF-1 cell proliferation: 0.33 µg/mL

B12: E35-scFv LN93P (scFv, V domains shown)
VH: B1 VH
VL: B1 VL with M92D, N93P
IC50, TF-1 cell proliferation: 0.66 µg/mL

B13: E35-scFv LN93E (scFv, V domains shown)
VH: B1 VH
VL: B1 VL with M92D, N93E
IC50, TF-1 cell proliferation: 0.081 µg/mL

B14: E35-scFv HT30P (scFv, V domains shown)
VH: B1 VH with T30P
VL: B1 VL with M92D
IC50, TF-1 cell proliferation: 0.126 µg/mL

B15: E35-scFv HT30Y (scFv, V domains shown)
VH: B1 VH with T30Y
VL: B1 VL with M92D
IC50, TF-1 cell proliferation: 0.142 µg/mL

B16: E35-scFv LN93F (scFv, V domains shown)
VH: B1 VH
VL: B1 VL with M92D, N93F
IC50, TF-1 cell proliferation: 0.3 µg/mL

B17: E35-scFv LD92I (scFv, V domains shown)
VH: B1 VH
VL: B1 VL with M92I
IC50, TF-1 cell proliferation: 0.597 µg/mL

B18: E35-scFv LD92S (scFv, V domains shown)
VH: B1 VH
VL: B1 VL with M92S
IC50, TF-1 cell proliferation: 0.598 µg/mL

B19: E35-scFv LN93M (scFv, V domains shown)
VH: B1 VH
VL: B1 VL with M92D, N93M
IC50, TF-1 cell proliferation: 0.27 µg/mL

B20: E35-scFv HT30N (scFv, V domains shown)
VH: B1 VH with T30N
VL: B1 VL with M92D
IC50, TF-1 cell proliferation: 0.178 µg/mL

B21: E35-scFv HE31N (scFv, V domains shown)
VH: B1 VH with E31N
VL: B1 VL with M92D
IC50, TF-1 cell proliferation: 0.11 µg/mL

B22: E35-scFv LN93D (scFv, V domains shown)
VH: B1 VH
VL: B1 VL with M92D, N93D
IC50, TF-1 cell proliferation: 0.045 µg/mL

B23: E35-scFv LD92G (scFv, V domains shown)
VH: B1 VH
VL: B1 VL with M92G
IC50, TF-1 cell proliferation: 0.522 µg/mL

B24: E35-scFv HE31A (scFv, V domains shown)
VH: B1 VH with E31A
VL: B1 VL with M92D
IC50, TF-1 cell proliferation: 0.21 µg/mL

B25: E35-scFv HE31D (scFv, V domains shown)
VH: B1 VH with E31D
VL: B1 VL with M92D
IC50, TF-1 cell proliferation: 0.13 µg/mL

B26: E35-scFv HE31W (scFv, V domains shown)
VH: B1 VH with E31W
VL: B1 VL with M92D
IC50, TF-1 cell proliferation: 0.26 µg/mL

B27: E35-scFv HT30W (scFv, V domains shown)
VH: B1 VH with T30W
VL: B1 VL with M92D
IC50, TF-1 cell proliferation: 0.151 µg/mL

B28: E35-scFv HE31F (scFv, V domains shown)
VH: B1 VH with E31F
VL: B1 VL with M92D
IC50, TF-1 cell proliferation: 0.18 µg/mL

B29: E35-scFv LN93R (scFv, V domains shown)
VH: B1 VH
VL: B1 VL with M92D, N93R
IC50, TF-1 cell proliferation: 0.6 µg/mL

B30: E35-scFv HE31M (scFv, V domains shown)
VH: B1 VH with E31M
VL: B1 VL with M92D
IC50, TF-1 cell proliferation: 0.13 µg/mL

B31: E35-scFv HE31P (scFv, V domains shown)
VH: B1 VH with E31P
VL: B1 VL with M92D
IC50, TF-1 cell proliferation: 0.17 µg/mL

B32: E35-scFv LN93K (scFv, V domains shown)
VH: B1 VH
VL: B1 VL with M92D, N93K
IC50, TF-1 cell proliferation: 0.78 µg/mL

B33: E35-scFv HE31R (scFv, V domains shown)
VH: B1 VH with E31R
VL: B1 VL with M92D
IC50, TF-1 cell proliferation: 0.31 µg/mL

B34: E35-scFv LN93G (scFv, V domains shown)
VH: B1 VH
VL: B1 VL with M92D, N93G
IC50, TF-1 cell proliferation: 0.205 µg/mL

B35: E35-scFv LN93L (scFv, V domains shown)
VH: B1 VH
VL: B1 VL with M92D, N93L
IC50, TF-1 cell proliferation: 0.33 µg/mL

B36: E35-scFv LN93H (scFv, V domains shown)
VH: B1 VH
VL: B1 VL with M92D, N93H
IC50, TF-1 cell proliferation: 0.45 µg/mL

B37: E35-scFv HT30E (scFv, V domains shown)
VH: B1 VH with T30E
VL: B1 VL with M92D
IC50, TF-1 cell proliferation: 0.132 µg/mL

B38: E35-scFv HE31C (scFv, V domains shown)
VH: B1 VH with E31C
VL: B1 VL with M92D
IC50, TF-1 cell proliferation: 0.36 µg/mL

B39: E35-scFv LN93S (scFv, V domains shown)
VH: B1 VH
VL: B1 VL with M92D, N93S
IC50, TF-1 cell proliferation: 0.3 µg/mL

B40: E35-scFv HE31S (scFv, V domains shown)
VH: B1 VH with E31S
VL: B1 VL with M92D
IC50, TF-1 cell proliferation: 0.14 µg/mL

B41: E35-scFv HT30V (scFv, V domains shown)
VH: B1 VH with T30V
VL: B1 VL with M92D
IC50, TF-1 cell proliferation: 0.158 µg/mL

B42: E35-scFv HE31Y (scFv, V domains shown)
VH: B1 VH with E31Y
VL: B1 VL with M92D
IC50, TF-1 cell proliferation: 0.2 µg/mL

B43: E35-scFv HT30M (scFv, V domains shown)
VH: B1 VH with T30M
VL: B1 VL with M92D
IC50, TF-1 cell proliferation: 0.174 µg/mL

B44: E35-scFv LN93A (scFv, V domains shown)
VH: B1 VH
VL: B1 VL with M92D, N93A
IC50, TF-1 cell proliferation: 0.21 µg/mL

From US20230002496A1 (STAIDSON BEIJING BIOPHARMACEUTICALS, published 2023)
